The text below walks through data of patent publication US20250353901A1 (ON TARGET MOLECULES BIOTECH, published 2025).

For this assay, the target named is T1, synthetic peptide HRCLQQLCCRKKPG
T1 construct: Variant of P2X7 residues 491-504, used as the counter-screen peptide; also called the wild type SNP at position 496 which is Q
T1 peptide: HRCLQQLCCRKKPG
Description: in-vitro cross-reaction of hybridoma monoclonal antibodies against the synthetic peptide. The source says: For the generation of monoclonal antibodies, hybridoma cell lines expressing the desired antibody were produced. Techniques for the production of monoclonal antibodies are well known in the art. Animals were presented with the carboxyl-terminal antigen sequence […] conjugated to KHL. Murine hybridoma cells were produced and screened according to standard protocols. Monoclonal antibodies harvested after clonal selection of the hybridomas expressed from the variable regions of the monoclonal antibodies raised against the antigen, were tested for their capacity to bind this antigen.

B1: Clone 3: 6H5.C10 Isotype Ig1 k (antibody, V domains shown)
VH: QVTLKESGPGILQPSQTLSLTCSFSGFSLSTFGMGVGWIRQPSGKGLEWLAHIWWDDYKYYNPALKSRLTISKDTSKNQVFLKIANVDTADTATYYCARISYYGSSYLDYWGQGTTLTVSS
VL: DVVMTQTPLSLPVSLGDQASISCRSSQSLVHSNGNTYLHWYLQKPGQSPKLLIYKVSNRFSGVPDRFSGSGSGTDFTLKISRVEAEDLGVYFCSQTTHVPYTFGGGTKLEIKR
notes: Murine hybridoma monoclonal antibody, isotype printed as 'Ig1 k'
For the molecule B1, the binding result is recorded as “no binding”.
